Laboratory results: the DeepSol protein solubility set

Assay: soluble on expression in E. coli; label from the status in PepcDB or PDB records

Soluble on expression in E. coli, not soluble:
MGSDKIHHHHHHMKEISCGRRTRVSFGKSREPLPIPDLVEIQKSSYRRFLEEGLLEVLKKFSPIYSQATRSDLRKSDRGFALEFVSTRTGEPAIDPLECKAKGLTYSVPIYATARLTDMKSGEMKEEEVFLGYIPYMTDRGTFIINGAERVVVNQIVVSPGLYFSSEYIDREEYGGYFLPSRGAWLEVILDPYDGVLYAGLDGKKVNLFLFLKTIGYEKDEDILSLYPTYLDADDEDSLLLHVGSILLEDIYDGGRKIAEKWDILTKDLAERILMIDDINQIKIVHPIAQNTFEKMLEVVSSSSEEGEEEEEKTKIYGLNEVTVVDAYLEIFRRLRPEELPRINAAKRYLHDLFFNPERYDLSEVGRYKVNERLRNAYIRYLIEVEGEDPEEARKKVYNETSLVLKPLDIVLASRILFDYFERRYVNDFEIDSYELKNLIRIFKEEYLEKRKTAPYDLRKLVSVFRRNYGVTSDLGVFAAIRYVSNINKELPSIPFDTKDHLGNKRVRTVGELVQREFERLFARAQKAIQERLTLINSLSKVSIQSLINIKSIISTVNQFFAMNQLSQFMDQVNPLSELTHKRRVSAVGPGGLRRESKVFEARNVHYSQYGRLCPIETPEGANIGFITSLAIYAKIDEYGFLMTPYRKVVNGKVTDEVVYLRANEEEEYKIIPATTPVDEEGNIIPERVVARMGEDIRLVPKEEVDFMDVSTKQPFSVSASLIPFLEHDDASRALMGSNMQRQAVPLLKTEAPLVGTGMEWEAAKNSGYVILAEHDGIVKEVDAARVVVHRTDENGNLMYDDKGNPVVDEYRLLKFVRSNQDTMINQKPIVNEGDFVKKGDPIADGPATDMGELALGRNILVAFMPWEGYNYEDAILVSQELLEEDVFTSIHIEVYETQARETRLGPEEITADIPNVSKELLKNLDENGIIRVGAYVVSDYGVGSQAILVGKVTPKGEGDTTPEEKIIRSVFGERGRDVKDTSLRLPHGVEGRVIRVDVYDQNDIAELGAGVLKLVRVYVASRKTLDIGDKLAGRHGNKGVVSNILPKEDMPFLPDGTPVQMVLNPLGIPSRMNVGQILETHLGWLAKLTGKWFATPVFEGAKEDEILRPLYEERKKRGLHLGDDENNPNGKVVLRDGRTGEPFDNPVVVGYMYMLKLIHIAKEKIHARSTGPYSLIHQQPLGGKSHFGGQRLGEMEVWALEAYGAAHTLAEMLTIKSDDIKGRNEAYKAILKNMNIPEPGVPESFRVLIKELRGLALDVRLYDENGNEIDIDKY, MGSDKIHHHHHHMKFIVSSTALFSHLQAVSRVINSKNALPILDCFLFQLEDGTLSVTVSDSETTMVTSVEVNESDSNGKFAVAAKTLLDALKEIPEQPLTFDIKPDTYEITVQYQNGKYSLMGQNADEFPQSATLGDNAVRVEMEAQILLGGINRSVFATADDELRPVMNGIYFDITTEDITMVASDGHKLVRCKTLAARGNERAAFILPKKPATLLKNLLPKESGMVVIEFDERNAVFTLESYRMVCRLIEGRYPNYNSVIPQNNPHKVTVDRMQLMGALRRVSIFSSQASSLIKLRMQENQIVVSAQDIDFSTSAEETQVCQYAGAAMSIGFKSTFLIDILNNISADEVVIELADPSRAGVIIPVEQEENEDLLMLLMPMMLND, MGSDKIHHHHHHMKFLNVIFKGHSISELIQEVIYVFIGYFFLMISYCTPRNKKKWVFGNKKIFKDNTKYLFIYMQEQHPEIQTIWITSSRRLVKRLRALSYSAYYKYSLKGLYHSLTAGVYVSTVNSNHINFFTSGRVFNVNLWHGISLKAMVDNKAVPADRSFLSRVCMPYVYEQYGLFFSTTPTIDDQYLRFFRFDPQVLYHGMSPRCSFMMMDHERLLRYIEEKEDPLMLDIIHTSRKYNKVFVYMPTWRINYGTHFMDYAFPDLYALNKAFSKINAILLLKLHPSMTYDAFKYKDLKHIYYIDANIDLYPILPFTDIMISDYSSIWYDYLLLPNKGVIHYDFDVDSYAKNEFGFFRDYKTFTPGVHASDFKQLLATIESSSSLQISEERRTWILDEMWGKGRSTNNEDLIKEICKRVEQVL, MGSDKIHHHHHHMKFSEPLVEGRLIRRYKRFLADVQLPDGTEVTAHCPNTGSMLGCQPENARVWLSRSDNPKRKLQYTWELVETEPGVLACVNTVRPNAQARAAIEAGVVQSLAGYAQCRAEVRYGSEKSRIDLLLSGHDHDPDAWVEVKNVTLAEGGEGYFPDAVTERGQKHLRELMAQVQNGDRAVLFFVVNHTGIEQVRPADHIDARYGQLLREACEAGVEVIAYRAALAGEDGDPSGRLELVEEVPVSLEP, MGSDKIHHHHHHMKGIISLIHGGKTFVDQIHSACQDAGIELYVISSNTVDADLLQNMSDKATVLEVIEGTDLNFESVLSFVEKLQQSNKQALACISVWENYRPLMARLNQALGAQDMCPEQVNLLRDKHLLRKVLYDAGLSQVNSRILTQEVFIQIQKNRELAFVKPRQGIASYGAFKLRPSTQWQQITEIAEQIQSDAVFSSSFADEVEFVAEDYISGVEFCFEIIHHDGQCNLIAIHEKLEVGEQNLTTLENVSASPPISLNRKQIEQANLWVSSIFERLELGSGCYHLEAKFDNNQWEVIEINPRIGGSYINESVAHVAGYSLLELWIRSLLRAGCSEYQAFLKVLSPHSEQFFERQQGSYFRVFFAEPNRTISRLNFKLGTPPIHKKLLMKEGQTTPNASRELFMAQALWSWSVSQDSVQTRAQISESLTALEVEYE, MGSDKIHHHHHHMKHMNNSVDQQIALFGQSGSGKTALLCSFYGAARDSTQSEGQLFELSAKDDRHTKLMKMYLGMKEDSLAPPQNRFESHKTVFSLKQKNIPIKDAAKSDQVNLTWHDYPGEWFEGGAVTDSEKQDKVETFRNLLGSDVALFLVDGQKLHDYANEEERYLSYLFDGFIENLNQIKDAILEGGKQLQQFPRIWVIALSKADLWPDLQVKDFENLLNKKAGNEIIALRSKLLEFIDNDEAFSFGKDFLLLSSAKFTPGHIDISQRKGVDVLLPLACVLPMQRHLWWQELKVLPINLADILLGNEIAQMGFKIVSKVLKNKVSGTNNKAMAALVFAELVRDMVDQPTELLQKAREEAVGRREFLKAITAEFTRKLNQAEADQVLVRDFA, MGSDKIHHHHHHMKHSDYSLIPTFVAIVEEKSYTKAAKRLGISQSAVSQGVTRLQAVFKDTLFIRGSRGVEPTQFSLDIYPTLASSVENIAFMMPEYKKFSAVKCEKQFVISSLSVFGFTILPPLSALMSQHAPLASVKIEPLNNHDFTNMLRSQHFDLVIDAHSNQYPQLRSKVIMEDTLCVMCRIDHPRLSGDSISIDEFLAEKHVTHSQLDQKGGYLSGKGLKEDEILNQRKIAWQAASIMEMLPVIECCDYIALLPQRLVDKYRHIYQLKQLHSNFLLDPIKVAMYWHSSRTNDPSHKWLREQIVKVTQQFNKL, MGSDKIHHHHHHMKIAIITFFDNGNYGSELQTLAMNDYLNAKGHVTVFCKVKSSNKIIRAIELLYDKVLLKWYKITDKEKRQYLTDRAKNLSSQRNIPPKLRQYIHSFVNSHISFGCISRLLLFRKERFDAYICGSDQIWSALKMPLLPLNFLYGIDKKKKIAYAPSIGLDNPPYYYIREVEKYVKDFIYLSVREEDAKNVLKKQYGIEAMQVLDPTLLQGKGFWDSLLAIESKQVPTKPYVFCYFLGKLNEDIVTCINRIANGKCVMVLPYEEDCDLIKNGKYELADPLDFVNLIKHADYVLTDSFHGSIFSILYDKQFVVTKRTHVRRVSQTSRITSLLKIFNLQSQYCSGVDEIINALQNNIDYSFTHIQLEEEQRKSRLFLDGALNEIEKNIKS, MGSDKIHHHHHHMKIAILTTNQAADDSRLVATARKKGHSANLLDLRQMSIALRPSVADIYYQNELITHHFDAIIPRLNVSYTDYGINLLQQFICSNTYVSESPEALRLGRDKLKCLQHLLSKGLPFPTTAIAYTPDFFNAIMQQLQLPLVVKLIESTEGTGVFLARTHKEVDNLCKTFSLAGVSYLIQEFIAEAAGHDVRAFVVGNRVVAAMQRDSQDDDFRANVSLGAHSSAVTLSADEQELVLKATQSIGVHVAGVDFVRSNRGPLLLEINVSPDFTGEQGIEAITLRDVAADIIDYTVQHAEAFYQGRSKY, MGSDKIHHHHHHMKIALIQPKMNKRPMDTDLKTRMSPPLSLLTLMGLTPEGHEVIMVNENVEKIDYACGAELVGITITLDVMPRAVEIAEEFHRLGIPVVAGGIHVTSSPDECRGYFDAICIGAAERVWERMIEDAEESRLQQVYHDMTDFRGEEIASPAYHRIDKNRYLYTNIMTTSRGCPNRCGFCYNSCRNRMYIRRPVTDVLRDIEGLGTRHILFIDDNFIGVPAYTRELLNHLRGRELKWSAAVTTKIADYPDVLDLMAETGCQSLFIGFESINNSSLHGVNKDNQFEKYERIVTAIHSRGIMINASMVFGLDGDEPDVFQRTLDWLVKNKIETLTSHILTPYPGTELHGRMKEEGRILDHELSRYNTAHVVFQPKGMTAEELYKGYLWIYREFYSFPNIWRRRPEHKAQRKSFFLFNILYRKFGGLTSVLARIIPMRTVGRLAARISYRVK, MGSDKIHHHHHHMKIAVVGLGNIGFNLFSYINKKYPNSVVGVDIDAGRVNDLRSQGYRVTTDYRALTGIDIWLLAPSTGDQGENLFAALGEMIICPGALISIESTLPPGTMELVRKYLEGKGYRCGQDVYLIHVPHRVMFGVDETVCDTPRVMGAFTQACRDKGRQFYEPLVPQLVEVEDVRIAELSKVVENVKRYVDVAFAQELYQYCKDQGMDFAELRKAVNSKSNVELLGTDWGIGGECLPKDMRFLRKVCPSPLLEGAAIADQEYRDRILQQVGTHQNVLIKGLSYKAGVKDLKHSRGVDLVRALEEAGNTVWVVDPLFTPEELEAAGFKTVEKFDEADLQGWIVLEREKALK, MGSDKIHHHHHHMKIDRSVIRSLALFAKMADDELDGLLTHATSRLVPPGEAIFEQGQSAAHFFLLIHGRLKVTQVTHDGQQIIVRMVHPGDLFGFARALQRSDYPGTATTAAESVILSWQTDLWPQFVEQNPHLAVSAMQTIGQRLEEAHTRIREMSTQEVERRVAHAVLRLSQQAGRKELDGIRIDFPISRQDIAEMTGTTLHTVSRILSSWESKGLVQGGRQKLLVCNLPGLAQLAEGETSQV, MGSDKIHHHHHHMKIGTYQRLKAIKFLDFGVYLLEELTQEEVLLPKRYVPEGLEMGAMLEVFLYTDSEDRPVATTLKPKAILGEVAALEVVSVSERGCYLDLGIAKDIFMPCKNPYSFHEGQKVVVRLDLDKEKRLIARIGVKNYLQNAPVTLRPFTEVEILPFEWSTLGYGCMVNGRYFGMLFNNETFEKLPLGEARKGYIKAVRPDGKIDLSLRKSQGAGGLKEELEKLMKALQSAGGKLELHYDSDPDEISKITGLSKKGFKRALGEAIRSQKVELVAGKGIEQIR, MGSDKIHHHHHHMKILLYLEAEQFLSHSGIGRAMKHQQRALDLMGIDWTKNPEDDYDILHLNTYGFSSWKMLKKAKKAGKKVIFHGHSTKEDFQNSFIGSNIAAPFFKQYLMHFYRAADLVITPTDYSASLLRSYGIKCPILPISNGIDLTKYSRSEAKEQAFREYFSLKSDQKVVVTAALYFKRKGIDDFIKVAERMPDVTFIWFGYQNLWTIPGWIRRIVKKNHPKNVLFPGYIKGDIFEGAMSSADAFFFPSREETEGIVVLEALASHQKTVVRDIPVYHGWLDSTCVSMATDVEGFVNQLQDVLDGKVDKTKEAYQVAESRTIEKVAQQLADAYQQTLEL, MGSDKIHHHHHHMKINRLTEIIVILLNKKLVTAKELADRFEVSTRTIYRDIETLSMSGVPVYMTKGKGGGISLIEEYSIDKAILSKKDKESLIVALKTLQATKYPEINSVVNKIGSIFGEQNFSNWIEIDFTEWGSNFNEDDKFTKIKEAILRRNTINFNYVNSLSSQTNRTVEPLKLMYKSKTWYLYGFCKLKDDFRIFRISRIRNLSIKDEVFSRKIIEEVCLNDSKVIKENTITLKLRFKEKMLFRVFDDFNKDLITKNEDDTYDVITEFPIGEWIYGYILSFGDNVEVLEPKDVRDNVITRLRELSKIYSL
